Measured values: patent US20220017627A1 (Bristol-Myers Squibb, published 2022)
Where a chain is given by its changes, count along the chain named. Names and notes keep the numbering of the source.

T1: hIL-7R (Example 11) (human, UniProt P16871 21-239)
T1 construct: Called full length hIL-7R for the mRNA display and hIL-7R for the Biacore runs; also called full length hIL-7R; human IL-7R
T1 chain: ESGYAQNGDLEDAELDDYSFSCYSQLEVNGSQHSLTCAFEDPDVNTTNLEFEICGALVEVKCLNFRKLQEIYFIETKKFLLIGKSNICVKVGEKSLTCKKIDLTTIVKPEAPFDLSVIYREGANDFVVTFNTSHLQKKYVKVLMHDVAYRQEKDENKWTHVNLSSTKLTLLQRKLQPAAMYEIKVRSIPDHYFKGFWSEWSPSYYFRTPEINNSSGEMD

B1: 18B1 LC R24A (antibody, human IgG1, kappa, V domains shown)
VH: EVQLVESGGGLVQPGRSLRLSCAASGFTFDDHAMHWVRQAPGKGLEWVSGISWNSRGIGYADSVKGRFTIFRDNAKNSLYLQMNSLRAEDTALYYCAKDEYSRGYYVLDVWGQGTTVTVSS
VL: AIQLTQSPSSLSASVGDRVTITCAASQGISSALAWYQQKPGKAPKLLIYDASSLESGVPSRFSGSGSGTDFTLTISSLQPEDFATYYCQQFNSYPLWITFGQGTRLEIKR
B2: 18B1 LC S26A (antibody, human IgG1, kappa, V domains shown)
VH: B1 VH
VL: B1 VL with A24R, S26A
B3: 18B1 LC S30A (antibody, human IgG1, kappa, V domains shown)
VH: B1 VH
VL: B1 VL with A24R, S30A
B4: 18B1 LC Q90A (antibody, human IgG1, kappa, V domains shown)
VH: B1 VH
VL: B1 VL with A24R, Q90A
B5: 18B1 LC L33A (antibody, human IgG1, kappa, V domains shown)
VH: B1 VH
VL: B1 VL with A24R, L33A
B6: 18B1 LC P95A (antibody, human IgG1, kappa, V domains shown)
VH: B1 VH
VL: B1 VL with A24R, P95A
B7: 18B1 LC I29A (antibody, human IgG1, kappa, V domains shown)
VH: B1 VH
VL: B1 VL with A24R, I29A
B8: 18B1 LC N92A (antibody, human IgG1, kappa, V domains shown)
VH: B1 VH
VL: B1 VL with A24R, N92A
B9: 18B1 LC S93A (antibody, human IgG1, kappa, V domains shown)
VH: B1 VH
VL: B1 VL with A24R, S93A
B10: 18B1 LC S31A (antibody, human IgG1, kappa, V domains shown)
VH: B1 VH
VL: B1 VL with A24R, S31A
B11: 18B1 LC T97A (antibody, V domains shown)
VH: B1 VH
VL: B1 VL with A24R, T99A
notes: copies: 2 + 2
B12: 18B1 LC F91A (antibody, human IgG1, kappa, V domains shown)
VH: B1 VH
VL: B1 VL with A24R, F91A
B13: 18B1 LC Q27A (antibody, human IgG1, kappa, V domains shown)
VH: B1 VH
VL: B1 VL with A24R, Q27A
B14: 18B1 LC G28A (antibody, human IgG1, kappa, V domains shown)
VH: B1 VH
VL: B1 VL with A24R, G28A
B15: 18B1 LC D50A (antibody, human IgG1, kappa, V domains shown)
VH: B1 VH
VL: B1 VL with A24R, D50A
B16: 18B1 LC L54A (antibody, human IgG1, kappa, V domains shown)
VH: B1 VH
VL: B1 VL with A24R, L54A
B17: 18B1 LC E55A (antibody, human IgG1, kappa, V domains shown)
VH: B1 VH
VL: B1 VL with A24R, E55A
B18: 18B1 LC S56A (antibody, human IgG1, kappa, V domains shown)
VH: B1 VH
VL: B1 VL with A24R, S56A
B19: 18B1 LC S53A (antibody, human IgG1, kappa, V domains shown)
VH: B1 VH
VL: B1 VL with A24R, S53A
B20: 18B1 LC S52A (antibody, human IgG1, kappa, V domains shown)
VH: B1 VH
VL: B1 VL with A24R, S52A

Biological target: T1, hIL-7R (Example 11)
Assay: NGS enrichment ratio of the mutation in the scFv library selected at 0.2 nM hIL-7R
Text: (§1) All six CDRs of the antibody were mutated, with each position in the CDR mutated to all possible amino acids at that position. […] FIGS. 17A and 17B provide a schematic of the overall process.

| 0.2 nM NGS | Binder |
| --- | --- |
| 0.91 | B1 |
| 1.32 | B2 |
| 0.7 | B3 |
| 1.63 | B4 |
| 1.05 | B5 |
| 0.03 | B6 |
| 1.44 | B7 |
| 0.34 | B8 |
| 1.84 | B9 |
| 0.6 | B10 |
| 0.92 | B11 |
| 0.05 | B12 |
| 1.27 | B13 |
| 1.05 | B14 |

Biological target: T1, hIL-7R (Example 11)
Assay: SPR (Biacore), ratio KD of parent 18B1 to KD of variant; row repeated at the end of the table [cont'd]
Text: (§2) Affinity (KD) of each variant binding to hIL-7R was obtained using this approach, and compared against the enrichment ratio (ER) obtained through NGS heat map analysis for the same variant.

| KD Relative to 18B1 | Binder |
| --- | --- |
| 1.15 | B1 |

Biological target: T1, hIL-7R (Example 11)
Assay: SPR (Biacore), ratio KD of parent 18B1 to KD of variant
Text: as §2

| KD Relative to 18B1 | Binder |
| --- | --- |
| 1.15 | B1 |
| 1.28 | B2 |
| 0.88 | B3 |
| 1.46 | B4 |
| 1.08 | B5 |
| 0.08 | B6 |
| 1.46 | B7 |
| 0.63 | B8 |
| 1.86 | B9 |
| 0.74 | B10 |
| 1.16 | B11 |
| 0.19 | B12 |
| 1.06 | B13 |
| 0.85 | B14 |

Biological target: T1, hIL-7R (Example 11)
Assay: NGS enrichment ratio of the mutation in the scFv library selected at 0.2 nM hIL-7R [cont'd]
Text: as §1

| 0.2 nM NGS | Binder |
| --- | --- |
| 0.3 | B15 |
| 0.99 | B16 |
| 0.23 | B17 |
| 0.96 | B18 |
| 1.07 | B19 |
| 1.09 | B20 |

Biological target: T1, hIL-7R (Example 11)
Assay: SPR (Biacore), ratio KD of parent 18B1 to KD of variant [cont'd]
Text: as §2

| KD Relative to 18B1 | Binder |
| --- | --- |
| 0.77 | B15 |
| 0.93 | B16 |
| 0.57 | B17 |
| 0.98 | B18 |
| 0.79 | B19 |
| 0.93 | B20 |
